How the values were obtained:
[1] = molecular target: porcine αβ-tubulin, as dynamic microtubules polymerizing from soluble αβ-tubulin (porcine) (UniProt P02550); assay: TIRF microscopy of dynamic microtubules
[2] = molecular target: the molecule itself; assay: single-molecule fluorescence intensity distribution
[3] = molecular target: porcine αβ-tubulin, as dynamic microtubules polymerizing from soluble αβ-tubulin (porcine) (UniProt P02550); assay: single-molecule TIRF microscopy of dynamic microtubules

B1: Alp14 (residues 1–690) C-terminally fused to mNeonGreen (domain or fragment)
chain: MSQDQEEDYSKLPLESRIVHKVWKVRLSAYEECSKSFSLSADGSDNCFELWNNQSELWKSVLTDSNVAAQEAGTAAFVAYCRFSDPSHLLKAREISVLSISEKCLTSPRAGTRENALEALMLLVEADSAAPVIESIIPSLSARSPKVIASNVAAIASLVEQFGAKVIPSKMIIPHISNLFGHADKNVRKEASRLTVNIYRWTGDPLKDLLFKDLRPVQTKELESLFAELPTEPPKQTRFLKSQQPTSEPNVETQVEEQPALENEESEPEPSDDQFDLVEEVDVLPNVDPNLETLMASSKWKDRKEALDKLLPVLSQPKIKDNDFFNLVAILTKSVSKDANIMVVINAAHCIQAMAKGLRSNFSKYASTSINALLERSKEKKANVIESLSSAMDAVLATSSLDDLAELIASFAGNKNPQIKSSCFSLFSRSFSNMTSLPSKFTVDTCAKACVPGVSDTFEPVRSAAAEALGVLMKLVGERAINQYLSPLDDIRKSKIRSFYETATVKAKAPTKKSKVKPSKQEESKVVVPSNAKAVKKSVVPSSPVVPSPRKATNKSLSMDVSKGNAFENGPLLPRPTTRPVSRGLSRGTSSSLQQKVKASTPLNSGALNETVQNLKNMELDDPAPQPAKHSRVDRYEHPKVLEDNDSTISSLESLKRENEELREQLKVEHEENISMQKQLSELKGELNTL
For B1, the average MT plus-end tracking ratio [1] was 0.89 and the average tracking time at MT plus ends [1] was 125 s.

B2: C-terminal-SNAPf-tagged Alp14 (residues 1–690), labelled with SNAP-surface Atto-488 (domain or fragment, S. pombe, UniProt O94534 1-690, looked up)
chain: B1 chain
modifications: SNAP-surface Atto-488 fluorophore covalently attached to the SNAP tag
For B2, the “stoichiometry N” value [2] was 2 and the mean dwell time at polymerizing MT plus ends [3] was 129 s.
